# IntAct's records for PubMed 31515488
# B1: Syntenin-2 (Homo sapiens), Q9H190 (parent)
# chain: MSSLYPSLEDLKVDQAIQAQVRASPKMPALPVQATAISPPPVLYPNLAELENYMGLSLSSQEVQESLLQIPEGDSTAVSGPGPGQMVAPVTGYSLGVRRAEIKPGVREIHLCKDERGKTGLRLRKVDQGLFVQLVQANTPASLVGLRFGDQLLQIDGRDCAGWSSHKAHQVVKKASGDKIVVVVRDRPFQRTVTMHKDSMGHVGFVIKKGKIVSLVKGSSAARNGLLTNHYVCEVDGQNVIGLKDKKIMEILATAGNVVTLTIIPSVIYEHMVKKLPPVLLHHTMDHSIPDA
# partner: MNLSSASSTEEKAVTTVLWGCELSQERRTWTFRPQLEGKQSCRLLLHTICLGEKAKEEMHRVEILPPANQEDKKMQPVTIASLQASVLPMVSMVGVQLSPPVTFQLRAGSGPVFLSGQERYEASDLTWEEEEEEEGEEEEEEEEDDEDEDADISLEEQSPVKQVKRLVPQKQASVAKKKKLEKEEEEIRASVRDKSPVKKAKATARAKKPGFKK
# B2: PIH1 domain-containing protein 2 (Homo sapiens), Q8WWB5 (parent)
# chain: METSSKGLLTQVTQFWNLLDDLAQSDPEGYEKFIQQQLKEGKQLCAAPEPQLCLQTRILKPKEKILFINLCQWTRIPAPQSTTHPVPLTVGKPEDTTEISDAYTVIDVAYNPDVLHAAEKDQVKKNQLIQMAMKCIEEKFQFTLSHSYHITKFRIKGSIQRMKQNLMGIQTDSIDLREKMRRELTLGQIRSSTMSNPDHFPQLLLPKDQVSGKAVCLIEEISSTEIQVEMKMPAYELKIVHDHSEKPLKIELKVELPGINSVSLCDLSVSEDDLLIEVSEKYRLHLNLPKLIDTEMTTAKFIKEKSTLIITMPLV
# partner: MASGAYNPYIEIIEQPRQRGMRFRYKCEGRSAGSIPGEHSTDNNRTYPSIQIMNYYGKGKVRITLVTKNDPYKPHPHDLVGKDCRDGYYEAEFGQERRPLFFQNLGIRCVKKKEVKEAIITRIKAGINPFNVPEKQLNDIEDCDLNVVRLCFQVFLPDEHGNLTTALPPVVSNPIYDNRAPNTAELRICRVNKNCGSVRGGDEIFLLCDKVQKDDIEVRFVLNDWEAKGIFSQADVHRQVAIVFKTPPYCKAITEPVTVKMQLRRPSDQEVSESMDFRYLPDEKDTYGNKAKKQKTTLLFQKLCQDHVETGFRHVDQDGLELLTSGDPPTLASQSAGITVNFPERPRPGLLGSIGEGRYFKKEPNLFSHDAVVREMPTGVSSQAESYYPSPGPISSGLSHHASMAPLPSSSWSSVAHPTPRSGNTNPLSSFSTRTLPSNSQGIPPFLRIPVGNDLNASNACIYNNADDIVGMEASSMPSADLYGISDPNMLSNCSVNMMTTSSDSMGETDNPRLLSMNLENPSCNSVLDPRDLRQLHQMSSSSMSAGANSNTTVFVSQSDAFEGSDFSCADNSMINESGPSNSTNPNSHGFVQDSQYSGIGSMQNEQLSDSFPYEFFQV
# B3: Leucine rich adaptor protein 1 (Homo sapiens), Q96LR2 (parent)
# chain: MEGTVESQTPDLRDVEGKVGRKTPEGLLRGLRGECELGTSGALLLPGASSTGHDLGDKIMALKMELAYLRAIDVKILQQLVTLNEGIEAVRWLLEERGTLTSHCSSLTSSQYSLTGGSPGRSRRGSWDSLPDTSTTDRLDSVSIGSFLDTVAPSELDEQGPPGAPRSEMDWAKVIAGGERARTEVDVAATRLGSLRAVWKPPGERLQGGPPESPEDESAKLGFEAHWFWEQCQDDVTFL
# partner: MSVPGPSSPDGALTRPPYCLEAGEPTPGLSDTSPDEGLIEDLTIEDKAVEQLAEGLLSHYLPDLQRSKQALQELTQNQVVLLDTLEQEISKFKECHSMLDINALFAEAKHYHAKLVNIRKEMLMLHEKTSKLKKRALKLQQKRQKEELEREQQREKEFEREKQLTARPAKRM
# B4: Glycine N-methyltransferase (Homo sapiens), Q14749 (parent)
# chain: MVDSVYRTRSLGVAAEGLPDQYADGEAARVWQLYIGDTRSRTAEYKAWLLGLLRQHGCQRVLDVACGTGVDSIMLVEEGFSVTSVDASDKMLKYALKERWNRRHEPAFDKWVIEEANWMTLDKDVPQSAEGGFDAVICLGNSFAHLPDCKGDQSEHRLALKNIASMVRAGGLLVIDHRNYDHILSTGCAPPGKNIYYKSDLTKDVTTSVLIVNNKAHMVTLDYTVQVPGAGQDGSPGLSKFRLSYYPHCLASFTELLQAAFGGKCQHSVLGDFKPYKPGQTYIPCYFIHVLKRTD
# B5: Keratin, type I cytoskeletal 40 (Homo sapiens), Q6A162 (parent)
# chain: MTSDCSSTHCSPESCGTASGCAPASSCSVETACLPGTCATSRCQTPSFLSRSRGLTGCLLPCYFTGSCNSPCLVGNCAWCEDGVFTSNEKETMQFLNDRLASYLEKVRSLEETNAELESRIQEQCEQDIPMVCPDYQRYFNTIEDLQQKILCTKAENSRLAVQLDNCKLATDDFKSKYESELSLRQLLEADISSLHGILEELTLCKSDLEAHVESLKEDLLCLKKNHEEEVNLLREQLGDRLSVELDTAPTLDLNRVLDEMRCQCETVLANNRREAEEWLAVQTEELNQQQLSSAEQLQGCQMEILELKRTASALEIELQAQQSLTESLECTVAETEAQYSSQLAQIQCLIDNLENQLAEIRCDLERQNQEYQVLLDVKARLEGEINTYWGLLDSEDSRLSCSPCSTTCTSSNTCEPCSAYVICTVENCCL
# Variants of: B1
# Details: with npm2_human NPM2, Q86SE8
row,Variant,effect of a mutation on the interaction
1,V182M,with no effect

# Variants of: B2
# Details: with rel_human REL
row,Variant,effect of a mutation on the interaction
1,A117V,with no effect
2,A102D,with no effect

# Variants of: B3
# Details: with bl1s6_human BLOC1S6, Q9UL45
row,Variant,effect of a mutation on the interaction
1,M60L,with no effect
2,Q207R,disrupting interaction strength

# Variants of: B4
# Details: with ntaq1_human NTAQ1, Q96HA8
row,Variant,effect of a mutation on the interaction
1,I211T,with no effect

# Variants of: B4
# Details: with arrc_human ARR3, P36575
# Sequence of arrc_human ARR3, P36575 (P36575 whole entry): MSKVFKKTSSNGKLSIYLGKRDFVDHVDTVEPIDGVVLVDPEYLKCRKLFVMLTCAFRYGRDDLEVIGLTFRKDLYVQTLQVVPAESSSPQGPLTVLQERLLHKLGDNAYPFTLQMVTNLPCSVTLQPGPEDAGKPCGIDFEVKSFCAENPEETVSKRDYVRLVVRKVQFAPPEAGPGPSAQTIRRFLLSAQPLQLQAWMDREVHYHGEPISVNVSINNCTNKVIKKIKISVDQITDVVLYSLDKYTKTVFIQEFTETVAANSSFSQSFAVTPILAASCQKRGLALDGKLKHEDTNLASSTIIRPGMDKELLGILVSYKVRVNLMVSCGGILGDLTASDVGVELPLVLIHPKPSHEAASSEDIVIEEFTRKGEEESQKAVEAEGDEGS
row,Variant,effect of a mutation on the interaction
1,I211T,disrupting interaction strength

# Variants of: B4
# Details: with arrb1_human ARRB1, P49407
# Sequence of arrb1_human ARRB1, P49407 (P49407 whole entry): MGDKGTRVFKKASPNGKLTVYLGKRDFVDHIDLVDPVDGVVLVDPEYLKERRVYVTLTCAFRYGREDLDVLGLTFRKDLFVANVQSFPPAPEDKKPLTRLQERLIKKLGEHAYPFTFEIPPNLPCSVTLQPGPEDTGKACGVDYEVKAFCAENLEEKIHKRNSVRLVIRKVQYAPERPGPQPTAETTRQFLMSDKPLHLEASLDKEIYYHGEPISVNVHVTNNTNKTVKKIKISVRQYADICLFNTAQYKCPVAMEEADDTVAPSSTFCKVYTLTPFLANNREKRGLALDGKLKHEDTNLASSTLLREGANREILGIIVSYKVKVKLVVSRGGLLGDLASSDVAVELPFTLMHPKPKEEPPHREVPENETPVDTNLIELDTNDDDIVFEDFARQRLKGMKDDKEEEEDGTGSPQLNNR
row,Variant,effect of a mutation on the interaction
1,I211T,disrupting interaction strength

# Variants of: B5
# Details: with wt1_human WT1, P19544
# Sequence of wt1_human WT1, P19544 (P19544 whole entry): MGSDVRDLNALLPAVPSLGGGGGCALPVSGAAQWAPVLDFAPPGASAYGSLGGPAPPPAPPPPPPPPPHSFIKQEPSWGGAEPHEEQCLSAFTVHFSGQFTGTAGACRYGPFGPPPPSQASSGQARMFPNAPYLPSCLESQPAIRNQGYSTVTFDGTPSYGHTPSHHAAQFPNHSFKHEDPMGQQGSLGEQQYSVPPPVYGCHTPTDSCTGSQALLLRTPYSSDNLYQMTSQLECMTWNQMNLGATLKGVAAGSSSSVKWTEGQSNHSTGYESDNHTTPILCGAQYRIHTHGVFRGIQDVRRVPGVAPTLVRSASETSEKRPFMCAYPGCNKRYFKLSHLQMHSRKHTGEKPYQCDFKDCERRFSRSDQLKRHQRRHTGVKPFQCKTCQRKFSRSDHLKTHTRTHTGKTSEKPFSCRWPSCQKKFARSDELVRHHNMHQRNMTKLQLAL
row,Variant,effect of a mutation on the interaction
1,A115T,with no effect
2,T388M,with no effect
3,W390R,with no effect
4,R235H,with no effect
5,E286D,with no effect
6,C349R,with no effect
7,M303T,with no effect
8,F85S,with no effect
9,T37A,with no effect

# Variants of: B5
# Details: with k2c4_human KRT4, P19013
# Sequence of k2c4_human KRT4, P19013 (P19013 whole entry): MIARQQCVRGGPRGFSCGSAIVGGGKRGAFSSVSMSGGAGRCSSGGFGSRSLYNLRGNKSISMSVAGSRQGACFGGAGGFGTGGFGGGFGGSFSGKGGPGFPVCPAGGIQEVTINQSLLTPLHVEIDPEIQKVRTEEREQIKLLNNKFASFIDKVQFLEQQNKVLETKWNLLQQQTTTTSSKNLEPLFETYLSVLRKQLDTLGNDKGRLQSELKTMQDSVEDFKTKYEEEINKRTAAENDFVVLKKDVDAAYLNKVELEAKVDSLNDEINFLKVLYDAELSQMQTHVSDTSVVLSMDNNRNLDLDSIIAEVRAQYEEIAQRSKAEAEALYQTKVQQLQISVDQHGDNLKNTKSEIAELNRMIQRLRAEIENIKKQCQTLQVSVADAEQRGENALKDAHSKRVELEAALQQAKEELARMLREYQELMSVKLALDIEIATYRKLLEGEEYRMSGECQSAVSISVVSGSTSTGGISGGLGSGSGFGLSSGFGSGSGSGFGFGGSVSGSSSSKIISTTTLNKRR
row,Variant,effect of a mutation on the interaction
1,A115T,with no effect
2,T388M,with no effect
3,W390R,with no effect
4,R235H,with no effect
5,E286D,with no effect
6,C349R,with no effect
7,M303T,with no effect
8,F85S,with no effect
9,T37A,with no effect

# Variants of: B5
# Details: with mta1_human MTA1, Q13330
# Sequence of mta1_human MTA1, Q13330 (Q13330 whole entry): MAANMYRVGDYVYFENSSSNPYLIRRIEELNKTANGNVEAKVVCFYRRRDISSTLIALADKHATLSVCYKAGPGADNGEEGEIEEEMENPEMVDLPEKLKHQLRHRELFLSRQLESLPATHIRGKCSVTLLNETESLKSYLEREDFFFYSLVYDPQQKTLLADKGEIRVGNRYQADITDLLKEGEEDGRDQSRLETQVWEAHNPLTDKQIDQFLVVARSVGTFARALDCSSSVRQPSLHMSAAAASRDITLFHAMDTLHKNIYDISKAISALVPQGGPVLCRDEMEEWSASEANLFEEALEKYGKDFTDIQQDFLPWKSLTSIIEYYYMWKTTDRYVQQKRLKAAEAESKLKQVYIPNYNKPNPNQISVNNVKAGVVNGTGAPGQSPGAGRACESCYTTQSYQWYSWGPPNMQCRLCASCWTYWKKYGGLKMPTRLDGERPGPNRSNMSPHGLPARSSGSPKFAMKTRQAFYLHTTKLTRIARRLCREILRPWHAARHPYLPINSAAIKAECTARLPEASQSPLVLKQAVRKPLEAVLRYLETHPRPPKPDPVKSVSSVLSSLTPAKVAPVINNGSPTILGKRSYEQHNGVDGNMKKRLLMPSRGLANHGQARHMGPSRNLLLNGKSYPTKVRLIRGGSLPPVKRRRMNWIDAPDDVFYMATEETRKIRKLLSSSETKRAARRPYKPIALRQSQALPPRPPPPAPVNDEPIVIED
row,Variant,effect of a mutation on the interaction
1,A115T,with no effect
2,T388M,with no effect
3,W390R,with no effect
4,R235H,with no effect
5,E286D,with no effect
6,C349R,with no effect
7,M303T,with no effect
8,F85S,with no effect
9,T37A,with no effect

# Variants of: B5
# Details: with prs8_human PSMC5, P62195
# Sequence of prs8_human PSMC5, P62195 (P62195 whole entry): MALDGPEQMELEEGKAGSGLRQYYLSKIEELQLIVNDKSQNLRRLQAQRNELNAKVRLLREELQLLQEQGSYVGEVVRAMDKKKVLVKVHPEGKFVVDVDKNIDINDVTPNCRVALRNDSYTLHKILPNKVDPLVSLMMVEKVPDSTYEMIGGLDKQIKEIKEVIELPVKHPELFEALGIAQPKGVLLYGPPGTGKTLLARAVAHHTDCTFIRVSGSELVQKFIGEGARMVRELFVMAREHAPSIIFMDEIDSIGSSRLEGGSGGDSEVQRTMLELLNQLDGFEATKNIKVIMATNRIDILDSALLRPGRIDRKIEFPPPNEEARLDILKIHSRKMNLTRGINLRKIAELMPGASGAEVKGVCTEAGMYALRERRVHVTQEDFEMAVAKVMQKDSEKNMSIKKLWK
row,Variant,effect of a mutation on the interaction
1,A115T,with no effect
2,T388M,with no effect
3,W390R,with no effect
4,R235H,with no effect
5,E286D,with no effect
6,C349R,with no effect
7,M303T,with no effect
8,F85S,with no effect
9,T37A,with no effect

# Variants of: B5
# Details: with snai1_human SNAI1, O95863
# Sequence of snai1_human SNAI1, O95863 (O95863 whole entry): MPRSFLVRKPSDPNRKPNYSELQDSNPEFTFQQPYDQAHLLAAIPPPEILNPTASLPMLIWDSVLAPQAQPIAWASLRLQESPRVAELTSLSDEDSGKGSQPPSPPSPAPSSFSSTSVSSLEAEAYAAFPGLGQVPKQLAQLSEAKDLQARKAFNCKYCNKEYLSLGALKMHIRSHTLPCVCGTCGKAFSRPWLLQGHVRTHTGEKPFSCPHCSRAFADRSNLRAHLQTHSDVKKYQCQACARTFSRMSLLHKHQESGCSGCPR
row,Variant,effect of a mutation on the interaction
1,A115T,with no effect
2,T388M,with no effect
3,W390R,with no effect
4,R235H,with no effect
5,E286D,with no effect
6,C349R,with no effect
7,M303T,with no effect
8,F85S,with no effect
9,T37A,with no effect
